This note sets out measurements from patent US20220177604A1 (ARGENX, published 2022).

Assay [1] addresses T1, recombinant Motavizumab human IgE (rMota-hIgE) (human, UniProt P01854 1-428).
T1 construct: also called Recombinant IgE (argenx)
The assay can be described thus: SPR, Fab periplasmic extract, pH 7.4. On the technique in general: Surface plasmon resonance follows binding to a sensor surface in real time, without labels.

Assay [2] addresses T2, human immunoglobulin E (hIgE) (human, UniProt P01854-1 1-428).
T2 construct: also called human IgE; Native IgE (Abcam)
Briefly: SPR, Fab periplasmic extract, pH 7.4.

For assay [3], the target named is T2, human immunoglobulin E (hIgE). The assay can be described thus: SPR competition, hIgE + mAb over hFcεRIα chip, pH 7.4.
Description: (§1) For this purpose, a competition approach was set-up. […] The assay was performed in HBS-EP pH7.4 or HBS-EP pH 5.5. Raw data were analyzed via BIA evaluation software with a blank subtraction (2-1). […] The IC50 values of each compound were calculated with a non-linear regression (log(agonist) vs. response Variable slope (four parameters)).
Assay [4] has the same target. Briefly: SPR competition.
Description: as §1
The target is the same in assay [5]. Briefly: competition ELISA. A general note: In an ELISA, binding on a coated surface is turned into a signal by an enzyme label.
Description: (§2) The IC50 values of each compound were calculated with a non-linear regression (log(agonist) vs. response Variable slope (four parameters)).
For assay [6] the target is unchanged. The assay can be described thus: competition ELISA, biotin-hIgE to coated hFcεRIα, pH 7.4.
Description: as §2
Assay [7] has the same target. The assay can be described thus: SPR competition, hIgE over hFcεRIα chip, pH 5.5.
Description: (§3) The assay was performed in HBS-EP pH7.4 or HBS-EP pH 5.5. Raw data were analyzed via BIA evaluation software with a blank subtraction (2-1). […] The IC50 values of each compound were calculated with a non-linear regression (log(agonist) vs. response Variable slope (four parameters)).
(§4) Raw data were analyzed via BIA evaluation software with a blank subtraction (2-1). […] The IC50 values of each compound, calculated with a non-linear regression (log(agonist) vs. response Variable slope (four parameters)).
Assay [8] shares this target. Briefly: SPR competition. This is another data set of the same source.
For assay [9] the target is unchanged. The assay can be described thus: competition ELISA, biotin-hIgE to coated hFcεRIα, pH 6.
Description: as §2
Assay [10] has the same target. Briefly: SPR competition, hIgE + mAb over hFcεRIα chip, pH 6 (text: pH 5.5).
Description: as §1
Assay [11] has the same target. The assay can be described thus: SPR competition, hIgE over hFcεRIα chip, pH 7.4.
Description: as §3, §4
In assay [12] the target is T1, recombinant Motavizumab human IgE …. Briefly: ELISA: rMota-hIgE captured on coated RSV-F, washes at pH 7.4, anti-human Fc-HRP; EC50 unit inferred, x axis in pM.
Description: (§5) Briefly a Maxisorp plate was coated with recombinant human respiratory syncytial virus protein F (RSV-F) (0.5 μg/mL), then blocked with PBS with 3% BSA and 0.05% Tween. […] After several washing steps at pH 7.4 or pH 5.5, detection of the bound mAbs was carried out with an anti-human Fc-HRP antibody.
Assay [13] has the same target. The assay can be described thus: ELISA: rMota-hIgE captured on coated RSV-F, washes at pH 5.5, anti-human Fc-HRP; EC50 unit inferred, x axis in pM; curve reaches only OD450 about 0.85 at about 670 pM.
Description: as §5
Assay [14] deals with T2, human immunoglobulin E (hIgE). The assay can be described thus: competition ELISA, hIgE to coated hFcεRIα, pH 6.
Description: (§6) The IC50 values of each antibody were calculated with a non-linear regression (log(agonist) vs. response Variable slope (four parameters)).
The target is the same in assay [15]. The assay can be described thus: competition ELISA, hIgE to coated hFcεRIα, pH 7.4.
Description: as §6
In assay [16] the target is T1, recombinant Motavizumab human IgE …. The assay can be described thus: ELISA: rMota-hIgE captured on coated RSV-F, washes at pH 5.5, anti-human Fc-HRP; EC50 unit inferred, x axis in pM.
Description: as §5
The target is the same in assay [17]. The assay can be described thus: ELISA: rMota-hIgE captured on coated RSV-F, washes at pH 7.4, anti-human Fc-HRP; EC50 unit inferred, x axis in pM. The source holds these as a separate data set.
Description: as §5
The target is the same in assay [18]. The assay can be described thus: ELISA: rMota-hIgE captured on coated RSV-F, washes at pH 5.5, anti-human Fc-HRP; EC50 unit inferred, x axis in pM. This is another data set of the same source.
Description: as §5
The target is the same in assay [19]. The assay can be described thus: ELISA: rMota-hIgE captured on coated RSV-F, washes at pH 7.4, anti-human Fc-HRP; EC50 unit inferred, x axis in pM. The source holds these as a separate data set.
Description: as §5
For assay [20] the target is unchanged. Briefly: ELISA: rMota-hIgE captured on coated RSV-F, washes at pH 5.5, anti-human Fc-HRP; EC50 unit inferred, x axis in pM. This is another data set of the same source.
Description: as §5

Changes are numbered by the printed parent chain.

T2 sequence (P01854 whole entry): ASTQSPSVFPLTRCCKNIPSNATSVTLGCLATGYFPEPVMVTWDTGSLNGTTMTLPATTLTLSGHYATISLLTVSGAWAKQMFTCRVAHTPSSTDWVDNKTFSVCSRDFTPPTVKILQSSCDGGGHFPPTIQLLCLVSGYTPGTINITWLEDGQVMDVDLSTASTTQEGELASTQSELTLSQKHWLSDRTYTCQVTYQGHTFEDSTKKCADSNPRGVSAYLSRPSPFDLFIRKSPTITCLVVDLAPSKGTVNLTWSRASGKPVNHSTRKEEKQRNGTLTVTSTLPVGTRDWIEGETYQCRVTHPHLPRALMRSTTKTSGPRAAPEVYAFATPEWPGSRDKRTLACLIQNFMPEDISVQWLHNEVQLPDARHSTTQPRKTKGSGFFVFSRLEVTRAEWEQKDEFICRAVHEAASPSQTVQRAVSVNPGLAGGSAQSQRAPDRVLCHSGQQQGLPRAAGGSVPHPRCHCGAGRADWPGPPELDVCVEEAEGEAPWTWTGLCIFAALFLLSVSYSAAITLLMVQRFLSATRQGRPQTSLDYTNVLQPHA
T1 sequence (P01854 other isoform, or with tags, fused parts or gaps limits assumed, form in doubt): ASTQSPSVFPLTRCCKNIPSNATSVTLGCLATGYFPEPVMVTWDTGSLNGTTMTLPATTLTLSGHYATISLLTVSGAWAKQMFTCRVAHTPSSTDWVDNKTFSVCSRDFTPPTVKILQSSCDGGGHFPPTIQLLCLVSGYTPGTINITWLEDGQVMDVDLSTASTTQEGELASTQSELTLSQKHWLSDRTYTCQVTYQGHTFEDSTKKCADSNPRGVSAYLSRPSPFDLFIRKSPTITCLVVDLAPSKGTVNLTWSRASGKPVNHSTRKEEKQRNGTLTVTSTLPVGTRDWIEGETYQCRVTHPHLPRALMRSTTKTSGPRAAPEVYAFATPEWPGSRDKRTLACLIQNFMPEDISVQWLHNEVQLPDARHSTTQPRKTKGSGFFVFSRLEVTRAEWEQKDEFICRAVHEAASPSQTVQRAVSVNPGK

B1: omalizumab variant Fab VH15 / VL3 (Fab, V domains shown)
VH: EVQLVESGGGLVQPGGSLRLSCAVSGYSITSGHRWEWIRQAPGKGLEWVASIHYDGSTNYNPSVKGRITISRDDSKNTFYLQMNSLRAEDTAVYYCARATHYFGHWHFAVWGQGTLVTVSS
VL: DIQLTQSPSSLSASVGDRVTITCRASQSVDYDGDSYMNWYQQKPGKAPKLLIEWGSYLRSGVPSRFSGSGSGTDFTLTISSLQPEDFATYYCQQNAEDPYTFGQGTKVEIK
As usually defined, the koff is the rate constant with which the complex falls apart. Turning to B1, in assay [1], the “Off-rate improvement ratio (against VHWT VLWT)” value is 18, the “R0 (RU)” value stood at 285 RU and the koff was 0.000269 s⁻¹. Also, in assay [2], the “Off-rate improvement ratio (against VHWT VLWT)” value worked out at 14.8, the “R0 (RU)” value was found to be 235 RU and the koff turned out to be 0.00035 s⁻¹.

B2: 3D1 human IgG1 mAb (antibody, V domains shown)
VH: QLQVVESGGGLVQPGGSLRLSCAASGFTFSSYYMSWVRQAPGKGLEWVSSIYSDGRGSKTFYADSVKGRFTISRDNAKNTLYLQMNSLKSEDTAVYFCAKDLLVAARGSMDYWGQGTQVTVSS
VL: NFMLTQPSAVSVSLEQTARITCQGGTLGSYGAHWYQQKPGQAPVLLIYGDNSRPSGIPERFSGTRSGGTATLTISGAQAEDEADYYCQSFDYSGNAVFGGGTHLTVL
notes: human IgG1 and human light chain constant domains; also called clone 3D1; WT 3D1
Broadly, the IC50 is the concentration that inhibits the measured activity by half. In the case of B2, the IC50 in assay [3] came to 5.31 nM; in assay [6], 90.3 nM; in assay [7], 11.7 µg/mL; in assay [9], 118 nM; in assay [10], 4.44 nM; in assay [11], 1.36 µg/mL. Further, the “Ratio pH 6/7.4 (IC50)” value in assay [4] is 0.8; in assay [5], 1.3. Further, the “ratio between IC50 at pH5.5 and pH 7.4” value in [8] amounted to 8.6.

B3: 18E2His2-hIgG1-WT (antibody, V domains shown)
VH: QLQLVESGGGLVQPGGSLRLSCAASGFTFSSYVMHWVRQAPGKGLEWVSSIYHDGSHTYYADFVKGRFTISRDNAKNTLYLQMNSLKSEDTAVYYCASGTSYSGSYYYTDPFFGSWGQGTQVTVSS
VL: NFMLTQPSALSVTLGQTARITCQGDRLGSRYIHWYQQKPPQAPVLVIHDDDRRPSGIPERFSGSSSGGTATLTISGAQAEDDGDYYCQSADSSGNPVFGGGTHLTVL
One may read the EC50 as the concentration giving half of the maximal effect. Consider B3, for which the EC50 in assay [12] was 0.365 nM; in [13], around 4210 nM.

B4: 18E2His2_MG (antibody, V domains shown)
VH: B3 VH with Q1E, L2V, V5L, A75S, K87R, S88A, S98K, Q121L
VL: SSELTQDPAVSVALGQTVRITCQGDRLGSRYIHWYQQKPGQAPVLVIYDDDRRPSGIPDRFSGSSSGNTASLTITGAQAEDEADYYCQSADSSGNPVFGGGTQLTVL
notes: also called 18E2VHS35HVLY34HMG
In the case of B4, the IC50 in assay [14] is around 11300 µg/mL; in [15], 3.91 µg/mL.

B5: 13E4_MG (antibody, V domains shown)
VH: B3 VH with Q1E, L2V, V5L, H35S, A75S, K87R, S88A, S98K, Q121L
VL: B4 VL with D25G, R26S, R30N, I32A, H33Y, R52S, S93N, P96A
notes: germlined clone; also called germlined 13E4
B5: the IC50 was 0.0633 µg/mL in assay [14] and 0.0242 µg/mL in [15].

B6: 18E2_H S35H_MG (antibody, V domains shown)
VH: B3 VH with Q1E, L2V, V5L, A75S, K87R, S88A, S98K, Q121L
VL: B4 VL with H33Y
notes: germlined clone
B6: the IC50 in assay [14] was 0.671 µg/mL; in assay [15] it was 0.0657 µg/mL.

B7: 18E2His2-hIgG1-ABDEG (antibody, V domains shown)
VH: B3 VH
VL: B3 VL
notes: human IgG1 heavy chain with ABDEG mutations (pUPEX32a); also called 18E2His2-ABDEG
For B7, the EC50 in assay [12] was determined as 0.121 nM; in assay [16], 0.616 nM.

B8: 18B9His-hIgG1-WT (antibody, V domains shown)
VH: QVQLVESGGGLVQPGGSLRLSCAASGFTFSSYVMSWVRQAPGKGLEWVSSIYSDGSHTYYADSVKGRFTISRDNAKNTLYLQMNSLKSEDTAVYYCAKNLEHYSGSYYYTDPRYDYWGQGTQVTVSS
VL: SSALTQPSALSVTLGQTAKITCQGGSLGSSYVHWYQQKPGQAPVLVIHDGDSRPSGIPERFSGSSSGGTATLTISGAQAEDEDDYYCQSADSSGNAVFGGGTHLTVL
notes: also called VL18B9_Y49H; 18B9-His-WT
Take B8: the EC50 was 0.142 nM in assay [17] and 0.115 nM in [18].

B9: 13E4-hIgG1-ABDEG (antibody, V domains shown)
VH: B3 VH with Q1E, H35S
VL: B8 VL with S1H, L4V, S30N, V32A, H33Y, H48Y, G50D, D83G, S93N
notes: human IgG1 heavy chain with ABDEG mutations (pUPEX32a); also called 13E4-ABDEG
As to B9, the EC50 in assay [19] was 0.11 nM; in [20] it was 0.122 nM.

B10: 13E4-hIgG1-WT (antibody, V domains shown)
VH: B3 VH with Q1E, H35S
VL: B8 VL with S1H, L4V, S30N, V32A, H33Y, H48Y, G50D, D83G, S93N
notes: also called clone 13E4
On to B10, for which the EC50 in assay [19] worked out at 0.0913 nM; in assay [20] it was 0.0938 nM.

B11: 18B9His-hIgG1-ABDEG (antibody, V domains shown)
VH: B8 VH
VL: B8 VL
notes: also called 18B9His ABDEG; 18B9-hIgG1-ABDEG
On to B11, for which the figures for the EC50 in assay [17] and in [18] were 0.119 nM and 0.149 nM, respectively.

B12: 18B9His_MG (antibody, V domains shown)
VH: B8 VH with Q1E, V5L, A75S, K87R, S88A, Q122L
VL: B4 VL with D25G, R26S, R30S, I32V, D50G, R52S, P96A
Take B12: the IC50 amounted to 1.74 µg/mL in assay [14] and 0.176 µg/mL in [15].

B13: 20D5 human IgG1 mAb (antibody, V domains shown)
VH: B8 VH with V2L, T28A, S35T, G66D, Y80F, N99D, L100A, H102Y, P112T, R113K
VL: B8 VL with V32A, H48Y, D49A, G50D, D83G
notes: also called clone 20D5
As to B13, the IC50 in assay [3] stood at 3.38 nM; in [6] it was 35.2 nM; in assay [9] it was 39.1 nM; in assay [10], 3.83 nM. Further, the “Ratio pH 6/7.4 (IC50)” value in assay [4] and in assay [5] was 1.1 throughout.

B14: 18B9 human IgG1 mAb (antibody, V domains shown)
VH: B8 VH
VL: B8 VL with H48Y
notes: human IgG1 and human light chain constant domains; also called clone 18B9
With B14, the IC50 was determined as 4.09 nM in assay [3]; 41.9 nM in [6]; 1.07 µg/mL in assay [7]; 112 nM in assay [9]; 5.65 nM in [10]; 0.662 µg/mL in assay [11]. Moreover, the entries for the “Ratio pH 6/7.4 (IC50)” value in [4] and in [5] were 1.4 and 2.7, respectively.

B15: 18E2_VL Y34H_MG (antibody, V domains shown)
VH: QLLESGGGLVQPGGSLRLSCAASGFTFSSYVMSWVRQAPGKGLEWVSSIYHDGSHTYYADFVKGRFTISRDNSKNTLYLQMNSLRAEDTAVYYCAKGTSYSGSYYYTDPFFGSWGQGTLVTVSS
VL: B4 VL
notes: germlined clone
With B15, the IC50 in [14] was found to be 61.4 µg/mL; in assay [15], 0.706 µg/mL.
